# Experimental data from the Immune Epitope Database (IEDB).
# Experiments:
# [1] = biological target: HLA-B*53:01; experiment: IEDB peptide-MHC binding, purified MHC/competitive/radioactivity; filed as Kd, often an IC50 or EC50 that approximates it; ≥ and ≤ were set here for values at or beyond the usual limits of such assays; settings: source organism: Dengue virus 2 Jamaica/1409/1983
# [2] = biological target: HLA-A*02:06; experiment: as above; settings: source organism: SARS coronavirus Tor2
# [3] = biological target: HLA-A*24:02; experiment: as above
# [4] = biological target: HLA-A*01:01; experiment: as above
# [5] = biological target: HLA-A*29:02; experiment: as above
# [6] = biological target: HLA-A*02:02; experiment: as above; settings: source organism: SARS coronavirus Tor2
# [7] = biological target: HLA-A*02:03; experiment: as above; settings: source organism: SARS coronavirus Tor2
# [8] = biological target: HLA-A*23:01; experiment: as above
# [9] = biological target: HLA-A*26:01; experiment: as above
# [10] = biological target: HLA-A*30:02; experiment: as above
# [11] = biological target: HLA-A*30:01; experiment: as above; settings: source organism: Mammarenavirus guanaritoense
# [12] = biological target: HLA-A*32:01; experiment: as above; settings: source organism: Mammarenavirus guanaritoense
# [13] = biological target: HLA-B*15:01; experiment: IEDB peptide-MHC binding, purified MHC/competitive/fluorescence; filed as Kd, often an IC50 or EC50 that approximates it; ≥ and ≤ were set here for values at or beyond the usual limits of such assays; settings: source organism: Bacillus cereus G9241
# [14] = biological target: HLA-B*51:01; experiment: IEDB peptide-MHC binding, purified MHC/competitive/radioactivity; filed as Kd, often an IC50 or EC50 that approximates it; ≥ and ≤ were set here for values at or beyond the usual limits of such assays; settings: source organism: Dengue virus 4 Philippines/H241/1956
# [15] = biological target: HLA-B*35:01; experiment: as above; settings: source organism: Dengue virus 4 Philippines/H241/1956
# [16] = biological target: HLA-A*68:01; experiment: as above; settings: source organism: SARS coronavirus Tor2
# [17] = biological target: HLA-A*33:01; experiment: as above; settings: source organism: SARS coronavirus Tor2
# [18] = biological target: HLA-A*03:01; experiment: as above; settings: source organism: SARS coronavirus Tor2
# [19] = biological target: HLA-A*11:01; experiment: as above; settings: source organism: SARS coronavirus Tor2
# [20] = biological target: HLA-A*31:01; experiment: as above; settings: source organism: SARS coronavirus Tor2
# [21] = source organism: SARS coronavirus Tor2
# [22] = source organism: Mammarenavirus guanaritoense
# [23] = source organism: Mammarenavirus brazilense
Sequence,"Kd [3, 21] [nM]","Kd [4, 21] [nM]","Kd [5, 21] [nM]","Kd [8, 21] [nM]","Kd [9, 21] [nM]","Kd [10, 21] [nM]",also measured
LMKITAEWLW,,,,,,,Kd [1]: 1410 nM
TMADLVYAL,10100,≥ 62500,≥ 23000,6580,≥ 77900,≥ 93800,Kd [2]: 46.5 nM; Kd [6]: 0.183 nM; Kd [7]: 16.2 nM
TCDWTNAGDY,≥ 70300,133,2020,≥ 70000,≥ 25000,672,
LYYPSARIVY,2020,≥ 37800,14.6,1910,7360,71.8,
HTNFESFTV,,,,,,,"Kd [11]: 182 nM; Kd [12]: 682 nM; Kd [3, 22]: ≥ 77500 nM; Kd [4, 22]: 440 nM; Kd [5, 22]: 11200 nM; Kd [8, 22]: ≥ 48200 nM; Kd [9, 22]: ≥ 36600 nM; Kd [10, 22]: 971 nM"
RTKAIGLNF,,,,,,,Kd [13]: 84.7 nM
AWNIWEVEDY,,,,,,,Kd ([10]; source organism: Dengue virus 1 Brazil/97-11/1997): 1880 nM
LPLPWAAGAD,,,,,,,Kd [14]: ≥ 22900 nM; Kd [15]: 4140 nM
NYPYLFEEHL,,,,,,,"Kd [3, 23]: 979 nM; Kd [5, 23]: ≥ 71400 nM; Kd [8, 23]: 824 nM"
MYLKLRSETL,164,7220,17700,44.5,7590,18200,
ATVAYFNMVY,13000,893,0.00633,≥ 30900,979,1210,Kd [16]: 549 nM; Kd [17]: ≥ 70000 nM; Kd [18]: 269 nM; Kd [19]: 74.2 nM; Kd [20]: 2330 nM
